From the supplement of paper PMC12855868 come the findings set out here.

B1: library; numbered along this chain (parent)
chain: MAAAGGARLLRAASAVLGGPAGRWLHHAGSRAGSSGLLRNRGPGGSAEASRSLSVSARARSSSEDKITVHFINRDGETLTTKGKVGDSLLDVVVENNLDIDGFGACEGTLACSTCHLIFEDHIYEKLDAITDEENDMLDLAYGLTDRSRLGCQICLTKSMDNMTVRVPETVADARQSIDVGKTS

The variants in the series derive from B1. Briefly: scaled log2 fold change in cell abundance, elesclomol vs control (0 = silent mean, 1 = nonsense mean) (scaled log2 ratio); higher = higher viability under elesclomol (loss of FDX1 cuproptosis function). Particulars: glucose 10 mM. On the procedure:
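Deep mutational scan of full-length human FDX1: a pooled saturation-mutagenesis ORF library (every residue 2-184 mutated to all 19 amino acids plus stop, and silent codons where available) was expressed by lentivirus in FDX1-knockout ABC1 (14 days) or HEK293T (11 days) cells grown with elesclomol (ES) or DMSO control. Variant abundance came from ORF sequencing. The log2 fold change (ES vs control, mean of duplicates) was centred on the silent-variant mean (0) and scaled to the nonsense-variant mean (1). Higher values mean greater viability under ES, i.e. loss of FDX1 function in cuproptosis.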

The mark [1] stands for this setting: with ABC1 FDX1 KO, elesclomol 5 nM, 14 days.
The mark [2] stands for this setting: with HEK293T FDX1 KO, elesclomol 40 nM, 11 days.
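Note: variant abundance is its share of total variant reads in each endpoint sample, from next-generation sequencing of the integrated ORF PCR-amplified out of genomic DNA.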

MAAAGGARLLRAASAVLGGPAGRWLHHAGSRAGSSGLLRNRGPGGSAEASRALSVSARARSSSEDKITVHFINRDGETLTTKGKVGDSLLDVVVENNLDIDGFGACEGTLACSTCHLIFEDHIYEKLDAITDEENDMLDLAYGLTDRSRLGCQICLTKSMDNMTVRVPETVADARQSIDVGKTS: the “scaled log2 fold change” value under setting [1] is 0.665 and the “scaled log2 fold change” value under setting [2] came out at 0.164.
For MAAAGGARLLRAASAVLGGPAGRWLHHAGSRAGSSGLLRNRGPGGSAEASRNLSVSARARSSSEDKITVHFINRDGETLTTKGKVGDSLLDVVVENNLDIDGFGACEGTLACSTCHLIFEDHIYEKLDAITDEENDMLDLAYGLTDRSRLGCQICLTKSMDNMTVRVPETVADARQSIDVGKTS, in that order: -0.0586 and -0.095.
For MAAAGGARLLRAASAVLGGPAGRWLHHAGSRAGSSGLLRNRGPGGSAEASRHLSVSARARSSSEDKITVHFINRDGETLTTKGKVGDSLLDVVVENNLDIDGFGACEGTLACSTCHLIFEDHIYEKLDAITDEENDMLDLAYGLTDRSRLGCQICLTKSMDNMTVRVPETVADARQSIDVGKTS, in that order: -0.197 and 0.41.
The matching figures for MAAAGGARLLRAASAVLGGPAGRWLHHAGSRAGSSGLLRNRGPGGSAEASRLLSVSARARSSSEDKITVHFINRDGETLTTKGKVGDSLLDVVVENNLDIDGFGACEGTLACSTCHLIFEDHIYEKLDAITDEENDMLDLAYGLTDRSRLGCQICLTKSMDNMTVRVPETVADARQSIDVGKTS: 0.253 and -0.651.
For the variant MAAAGGARLLRAASAVLGGPAGRWLHHAGSRAGSSGLLRNRGPGGSAEASRILSVSARARSSSEDKITVHFINRDGETLTTKGKVGDSLLDVVVENNLDIDGFGACEGTLACSTCHLIFEDHIYEKLDAITDEENDMLDLAYGLTDRSRLGCQICLTKSMDNMTVRVPETVADARQSIDVGKTS, the “scaled log2 fold change” value runs as follows: under setting [1], -0.0467; under setting [2], -0.248.
With MAAAGGARLLRAASAVLGGPAGRWLHHAGSRAGSSGLLRNRGPGGSAEASRFLSVSARARSSSEDKITVHFINRDGETLTTKGKVGDSLLDVVVENNLDIDGFGACEGTLACSTCHLIFEDHIYEKLDAITDEENDMLDLAYGLTDRSRLGCQICLTKSMDNMTVRVPETVADARQSIDVGKTS, the “scaled log2 fold change” value under setting [1] worked out at 0.556.
Consider MAAAGGARLLRAASAVLGGPAGRWLHHAGSRAGSSGLLRNRGPGGSAEASRQLSVSARARSSSEDKITVHFINRDGETLTTKGKVGDSLLDVVVENNLDIDGFGACEGTLACSTCHLIFEDHIYEKLDAITDEENDMLDLAYGLTDRSRLGCQICLTKSMDNMTVRVPETVADARQSIDVGKTS, for which the “scaled log2 fold change” value amounted to 0.212 under setting [1] and 1.17 under setting [2].
The matching figures for MAAAGGARLLRAASAVLGGPAGRWLHHAGSRAGSSGLLRNRGPGGSAEASRDLSVSARARSSSEDKITVHFINRDGETLTTKGKVGDSLLDVVVENNLDIDGFGACEGTLACSTCHLIFEDHIYEKLDAITDEENDMLDLAYGLTDRSRLGCQICLTKSMDNMTVRVPETVADARQSIDVGKTS: 0.202 and 0.946.
For MAAAGGARLLRAASAVLGGPAGRWLHHAGSRAGSSGLLRNRGPGGSAEASRKLSVSARARSSSEDKITVHFINRDGETLTTKGKVGDSLLDVVVENNLDIDGFGACEGTLACSTCHLIFEDHIYEKLDAITDEENDMLDLAYGLTDRSRLGCQICLTKSMDNMTVRVPETVADARQSIDVGKTS, in that order: 0.174 and -1.31.
The matching figures for MAAAGGARLLRAASAVLGGPAGRWLHHAGSRAGSSGLLRNRGPGGSAEASRCLSVSARARSSSEDKITVHFINRDGETLTTKGKVGDSLLDVVVENNLDIDGFGACEGTLACSTCHLIFEDHIYEKLDAITDEENDMLDLAYGLTDRSRLGCQICLTKSMDNMTVRVPETVADARQSIDVGKTS: 0.431 and -0.0215.
In the case of MAAAGGARLLRAASAVLGGPAGRWLHHAGSRAGSSGLLRNRGPGGSAEASRELSVSARARSSSEDKITVHFINRDGETLTTKGKVGDSLLDVVVENNLDIDGFGACEGTLACSTCHLIFEDHIYEKLDAITDEENDMLDLAYGLTDRSRLGCQICLTKSMDNMTVRVPETVADARQSIDVGKTS, the “scaled log2 fold change” value under setting [1] is 0.648 and the “scaled log2 fold change” value under setting [2] came to 0.0946.
For the variant MAAAGGARLLRAASAVLGGPAGRWLHHAGSRAGSSGLLRNRGPGGSAEASRPLSVSARARSSSEDKITVHFINRDGETLTTKGKVGDSLLDVVVENNLDIDGFGACEGTLACSTCHLIFEDHIYEKLDAITDEENDMLDLAYGLTDRSRLGCQICLTKSMDNMTVRVPETVADARQSIDVGKTS, the “scaled log2 fold change” value under setting [1] was -0.128.
For MAAAGGARLLRAASAVLGGPAGRWLHHAGSRAGSSGLLRNRGPGGSAEASRMLSVSARARSSSEDKITVHFINRDGETLTTKGKVGDSLLDVVVENNLDIDGFGACEGTLACSTCHLIFEDHIYEKLDAITDEENDMLDLAYGLTDRSRLGCQICLTKSMDNMTVRVPETVADARQSIDVGKTS, the “scaled log2 fold change” value runs as follows: under setting [1], 0.212; under setting [2], -0.953.
For MAAAGGARLLRAASAVLGGPAGRWLHHAGSRAGSSGLLRNRGPGGSAEASRGLSVSARARSSSEDKITVHFINRDGETLTTKGKVGDSLLDVVVENNLDIDGFGACEGTLACSTCHLIFEDHIYEKLDAITDEENDMLDLAYGLTDRSRLGCQICLTKSMDNMTVRVPETVADARQSIDVGKTS, in that order: 0.447 and -0.133.
The matching figures for MAAAGGARLLRAASAVLGGPAGRWLHHAGSRAGSSGLLRNRGPGGSAEASVSLSVSARARSSSEDKITVHFINRDGETLTTKGKVGDSLLDVVVENNLDIDGFGACEGTLACSTCHLIFEDHIYEKLDAITDEENDMLDLAYGLTDRSRLGCQICLTKSMDNMTVRVPETVADARQSIDVGKTS: -0.873 and -0.419.
For MAAAGGARLLRAASAVLGGPAGRWLHHAGSRAGSSGLLRNRGPGGSAEASYSLSVSARARSSSEDKITVHFINRDGETLTTKGKVGDSLLDVVVENNLDIDGFGACEGTLACSTCHLIFEDHIYEKLDAITDEENDMLDLAYGLTDRSRLGCQICLTKSMDNMTVRVPETVADARQSIDVGKTS, in that order: 0.343 and -0.174.
Regarding MAAAGGARLLRAASAVLGGPAGRWLHHAGSRAGSSGLLRNRGPGGSAEASWSLSVSARARSSSEDKITVHFINRDGETLTTKGKVGDSLLDVVVENNLDIDGFGACEGTLACSTCHLIFEDHIYEKLDAITDEENDMLDLAYGLTDRSRLGCQICLTKSMDNMTVRVPETVADARQSIDVGKTS, the “scaled log2 fold change” value runs as follows: under setting [1], 0.239; under setting [2], 1.75.
